According to patent publication US10590182B2, “Binding-triggered transcriptional switches and methods of use thereof” (The Regents of the University of California, priority 2015, dated 2020):

B1: soluble TRAIL: recombinant TRAIL, an inducer of apoptosis and a cancer therapeutic (protein, UniProt P50591 39-281, looked up)
extracellular domain: TNELKQMQDKYSKSGIACFLKEDDSYWDPNDEESMNSPCWQVKWQLRQLVRKMILRTSEETISTVQEKQQNISPLVRERGPQRVAAHITGTRGRSNTLSSPNSKNEKALGRKINSWESSRSGHSFLSNLHLRNGELVIHEKGFYYIYSQTYFRFQEEIKENTKNDKQMVQYIYKYTSYPDPILLMKSARNSCWSKDAEYGLYSIYQGGIFELKENDRIFVSVTNEHLIDMDHEASFFGAFLVG
modifications: extracellular domain
notes: recombinant TRAIL, an inducer of apoptosis and a cancer therapeutic

Tests used:
[1] = system: gamma secretase; assay: Chimeric Notch receiver cell activation by CD19 sender cells with or without gamma secretase inhibitor DAPT; type: cell-based, mouse; conditions: sender cells expressing CD19, 1 mM DAPT
Source text: DAPT is a gamma secretase inhibitor. The data are expressed as GFP^+ “receiver” cells.
(FIG. 86A) Mouse fibroblasts (L929 line) with anti-CD19/tTA synNotch are cultivated with sender cells expressing Delta, or CD19, or CD19 in the presence of the gamma-secretase inhibitor DAPT. FACS plots of the resulting GFP intensity in receiver cells are shown.

[2] = system: HCT116 colon cancer cells; assay: Sensitivity of cancer cell line to recombinant TRAIL; type: cell-based
Procedure: (§1) The cells were then harvested and stained with the live/dead stain, SYTOX Blue (Thermo Scientific # S34857) and the fraction of dead cells was determined by flow cytometry on a BD LSR II.

[3] = system: K562 cells; assay: as above; type: cell-based
Procedure: as §1

| Molecule | GFP+ receiver cells [1] | cell killing [2] | induction of apoptosis [3] |
| --- | --- | --- | --- |
| C[C@H](NC(=O)Cc1cc(F)cc(F)c1)C(=O)NC(C(=O)OC(C)(C)C)c1ccccc1 (stereo partly drawn) [DAPT] | at control, untreated levels | – | – |
| B1 | – | effective at killing | does not induce apoptosis even at high doses |
